The target of one assay is T1, human GLP1R (Homo sapiens, UniProt P43220).
T1 construct: expressed in transfected cells; assay-ready frozen cells grown with Blasticidin and Hygromycin
Description: cAMP activity assay, cells expressing human GLP1R (HitHunter cAMP XS). As to conditions: cAMP production, 1 hour at room temperature; assay buffer with or without 20% human serum (not stated which). It is filed as cell-based. How it is done:
(§1) Activity of the peptides at the Glucagon receptor (GCGR) and GLP-1 receptor (GLP1R) was measured in a cAMP activity assay.
(§2) Peptides were dissolved in 100% DMSO and serially diluted to generate 10 point titrations. The peptide solutions were then transferred into 384-well assay plates (150 nL/well).
(§3) Assay ready frozen cells expressing human GLP1R or human GCGR were suspended in growth media consisting of DMEM medium (GIBCO), 10% FBS (GIBCO), 1x NEAA(GIBCO), 1x P/S (GIBCO), 10ug/ml Blasticidin (GIBCO) and 200 µg/mL Hygromycin (GIBCO). Cells were then diluted in assay buffer consisting of PBS (GIBCO), 7.5% BSA (Perkin Elmer), 100 µM RO 20-1724 (Sigma), with or without 20% human serum (MP Biomedical). The cell suspensions (15 µL) were then added to the assay plates containing the peptide solutions (30,000 cells/well for human GCGR; 10.000 cells/well for human GLP1R). The cells were incubated for 1 hour at room temperature in the dark. Production of cAMP was determined using HitHunter™ cAMPXS kits (DiscoverX) following manufacturer protocol. The plates were incubated for overnight at room temperature in the dark. Luminescence was measured using an EnVision Multilabel plate reader (Perkin Elmer). Native GLP-1 and Glucagon (Bachem) are used as control peptides. EC50 values were calculated using uses a 4 parameter logistic fit based on the Levenberg-Marquardt algorithm.
(Cyclic AMP is a second messenger, typically raised through Gs and lowered through Gi signalling.)

The target in a further assay is T2, human GCGR (Homo sapiens, UniProt P47871).
T2 construct: expressed in transfected cells; assay-ready frozen cells grown with Blasticidin and Hygromycin
T2 sequence (P47871 26-477): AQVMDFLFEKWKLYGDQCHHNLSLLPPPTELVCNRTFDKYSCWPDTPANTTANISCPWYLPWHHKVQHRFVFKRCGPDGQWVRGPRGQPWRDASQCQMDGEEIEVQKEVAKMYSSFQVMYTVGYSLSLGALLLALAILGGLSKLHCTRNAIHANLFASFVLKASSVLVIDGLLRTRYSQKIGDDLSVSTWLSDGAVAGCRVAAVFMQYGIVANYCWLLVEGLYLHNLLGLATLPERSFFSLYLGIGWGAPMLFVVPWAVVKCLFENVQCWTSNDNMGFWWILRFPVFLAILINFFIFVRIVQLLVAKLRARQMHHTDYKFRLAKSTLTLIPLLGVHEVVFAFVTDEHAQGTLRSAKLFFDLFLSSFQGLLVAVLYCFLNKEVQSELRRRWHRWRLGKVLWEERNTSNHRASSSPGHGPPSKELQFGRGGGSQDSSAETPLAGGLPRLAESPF
Description: cAMP activity assay, cells expressing human GCGR (HitHunter cAMP XS). It is filed as cell-based. The following applies: ratio of human GCGR EC50 to human GLP1R EC50. How it is done:
as §1, §2, §3

Assay [1] has as its target human GLP-1 receptor (GLP1R) (human, UniProt P43220). The assay can be described thus: cell-based or functional assay.
For assay [2], the target named is human Glucagon receptor (GCGR) (human, UniProt P47871). The assay can be described thus: cell-based or functional assay.

7 molecules from US20230270825A1, “STAPLED OLEFIN CO-AGONISTS OF THE GLUCAGON AND GLP-1 RECEPTORS” (Merck Sharp & Dohme LLC, priority 2019, published 2023) can be followed below.

Numbered stars: 1 amine (or outer) side, 2 acyl side, 3 side chain; on linkers, the order of the positions; unused ones are H or OH. Bridge positions count the residues as written; N and C are the ends. Square brackets hold non-standard residues; d marks the D form. Side chains are listed from the residue outwards. Ends that are not written are not given here. Peptide text beside a SMILES is read from it. * marks the point of attachment. R6me = (R)-2-amino-2-methyloct-7-enoic acid, C=CCCCC[C@@](C)(N[*:1])C(=O)[*:2]; Nle(6-ylidene) = O=C([C@H](CCCC=[*:3])N[*:1])[*:2]; S7 = C[C@@](CCCCCC=[*:3])(N[*:1])C(=O)[*:2]; Gly(pent-4-enyl) = C=CCCC[C@H](N)C(=O)O; γGlu = O=C(O)[C@H](CCC(=O)[*:2])N[*:1]; Palmitoyl = CCCCCCCCCCCCCCCC(=O)*; S5 = C=CCCC[C@](C)(N)C(=O)O; Aib = CC(C)(N)C(=O)O

T1 sequence (P43220 24-463): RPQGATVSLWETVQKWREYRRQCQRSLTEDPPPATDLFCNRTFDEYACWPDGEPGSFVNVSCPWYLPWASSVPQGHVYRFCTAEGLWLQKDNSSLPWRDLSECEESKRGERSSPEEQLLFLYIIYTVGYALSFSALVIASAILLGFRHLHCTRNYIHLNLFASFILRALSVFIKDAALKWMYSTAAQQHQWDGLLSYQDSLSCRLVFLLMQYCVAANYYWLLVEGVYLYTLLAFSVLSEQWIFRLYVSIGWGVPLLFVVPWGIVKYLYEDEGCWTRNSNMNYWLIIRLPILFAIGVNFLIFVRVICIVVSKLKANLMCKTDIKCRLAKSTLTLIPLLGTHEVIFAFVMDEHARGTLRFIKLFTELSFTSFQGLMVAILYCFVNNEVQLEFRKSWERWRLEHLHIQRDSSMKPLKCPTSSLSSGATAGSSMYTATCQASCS

For `CC(C)C[C@@H]1NC(=O)[C@H](Cc2c[nH]c3ccccc23)NC(=O)[C@@H](NC(=O)[C@@H](NC(=O)[C@H](Cc2ccccc2)NC(=O)[C@H](CC(=O)O)NC(=O)[C@H](CCC(N)=O)NC(=O)[C@H](C)NC(=O)[C@H](C)NC(=O)[C@H](CCCNC(=N)N)NC(=O)C(C)(C)NC(=O)[C@H](CC(=O)O)NC(=O)[C@H](CC(C)C)NC(=O)[C@H](Cc2ccc(O)cc2)NC(=O)[C@H](CCCCN)NC(=O)[C@H](CO)NC(=O)[C@H](CCCCN)NC(=O)[C@H](CC(=O)O)NC(=O)[C@H](CO)NC(=O)[C@@H](NC(=O)[C@H](Cc2ccccc2)NC(=O)[C@@H](NC(=O)CNC(=O)[C@H](CCC(N)=O)NC(=O)C(C)(C)NC(=O)[C@@H](N)Cc2c[nH]cn2)[C@@H](C)O)[C@@H](C)O)C(C)C)CCCC=CCCC[C@@H](C(=O)N[C@H](C(=O)N[C@@H](CCCCN)C(=O)N[C@@H](CCC(N)=O)C(=O)O)[C@@H](C)O)NC(=O)[C@H](CC(C)C)NC1=O` [compound 18] (H-H[Aib]QGTFTSDKSKYLD[Aib]RAAQDFV[Nle(6-ylidene)]WLL[Nle(6-ylidene)]TKQ-OH; staple 24-28), at human GLP1R, the EC50 – broadly, the midpoint of the concentration-response curve – is 0.13 nM. Moreover, the “hGCGR/hGLP1R (hTone)” value at human GCGR came to 33.1.

`CCCCCCCCCCCCCCCC(=O)N[C@@H](CCC(=O)N[C@@H](CCC(=O)NCCCC[C@H](NC(=O)[C@H](CC(=O)O)NC(=O)[C@H](CO)NC(=O)[C@@H](NC(=O)[C@H](Cc1ccccc1)NC(=O)[C@@H](NC(=O)CNC(=O)[C@H](CCC(N)=O)NC(=O)C(C)(C)NC(=O)[C@@H](N)Cc1c[nH]cn1)[C@@H](C)O)[C@@H](C)O)C(=O)N[C@@H](CO)C(=O)N[C@@H](CCCCN)C(=O)N[C@@H](Cc1ccc(O)cc1)C(=O)N[C@@H](CC(C)C)C(=O)N[C@@H](CC(=O)O)C(=O)NC(C)(C)C(=O)N[C@@H](CCCNC(=N)N)C(=O)N[C@@H](C)C(=O)N[C@@H](C)C(=O)N[C@@H](CCC(N)=O)C(=O)N[C@@H](CC(=O)O)C(=O)N[C@@H](Cc1ccccc1)C(=O)N[C@H](C(=O)N[C@@]1(C)CCCC=CCCC[C@@](C)(C(=O)N[C@H](C(=O)N[C@@H](CCCCN)C(=O)N[C@@H](CCC(N)=O)C(=O)O)[C@@H](C)O)NC(=O)[C@H](CCSC)NC(=O)[C@H](CC(C)C)NC(=O)[C@H](Cc2c[nH]c3ccccc23)NC1=O)C(C)C)C(=O)O)C(=O)O` [compound 14] (H-H[Aib]QGTFTSDK([γGlu-γGlu-Palmitoyl])SKYLD[Aib]RAAQDFV[S5]WLM[S5]TKQ-OH; staple 24-28) displayed an EC50 on human GLP1R of 0.13 nM. Moreover, on human GCGR, the “hGCGR/hGLP1R (hTone)” value stood at 35.14.

B1: peptide of SEQ ID NO: 18 (TP 557) (peptide)
peptide: H[Aib]QGTFTSDKSKYLD[Aib]RAAQDFV[Gly(pent-4-enyl)]WLL[Gly(pent-4-enyl)]TK-NH2
modifications: staple 24-28; not fully specified (residue 30); printed as HUQGTFTSDKSKYLDURAAQDFV*S5HWLL*S5HTKγE-NH2; also: Lys 30 conjugated by a gamma-glutamic acid (KγE)
As to B1, the “GLP1R EC50 human (cAMP activity assay)” value in assay [1] stood at 0.13 nM. In addition, the “GCGR EC50 human (cAMP activity assay)” value in assay [2] stood at 4.25 nM.

For the molecule H[dS]QGTFTSDKSKYLDE[R6me]AAQDFV[S7]WLLDT-NH2 (staple 17-24) [peptide of SEQ ID NO: 9 (TP398)], the “GLP1R EC50 human (cAMP activity assay)” value in assay [1] turned out to be 5 nM. In assay [2], the “GCGR EC50 human (cAMP activity assay)” value amounted to 5 nM.

B2: peptide of SEQ ID NO: 19 (TP 558) (peptide)
peptide: HXQGTFTSDKSKYLDERAAXDFVXWLLDT
modifications: as printed: HsQGTFTSDKSKYLDERAA*S5meDFV*S5meWLLDT-NH2; s = D-Serine (position 2); two *S5me (positions 20 and 24) cyclized to form a double bond containing ring; C-terminal amide
In the case of B2, the “GLP1R EC50 human (cAMP activity assay)” value in assay [1] was 2.79 nM. Moreover, in assay [2], the “GCGR EC50 human (cAMP activity assay)” value was 2.15 nM.

B3: peptide of SEQ ID NO: 7 (TP397) (peptide)
peptide: HXQGTFTSDXSXYLDERAXQDFVQWLLDT
modifications: as printed: HsQGTFTSDK(γEγEC16)S*R6meYLDERA*S7meQDFVQWLLDT-NH2; s = D-Serine (position 2); Lys 10 conjugated to C16 fatty acid (-CO-(CH2)14-CH3) via γ-glutamic acid-γ-glutamic acid; *R6me (position 12) and *S7me (position 19) cyclized to form a double bond containing ring; C-terminal amide
In the case of B3, in assay [1], the “GLP1R EC50 human (cAMP activity assay)” value came to 0.77 nM. For the same molecule, in assay [2], the “GCGR EC50 human (cAMP activity assay)” value was 5 nM.

B4: peptide of SEQ ID NO: 8 (TP398) (peptide)
peptide: HXQGTFTSDXSKYLDEXAAQDFVXWLLDT
modifications: as printed: HsQGTFTSDK(γEγEC16)SKYLDE*R6meAAQDFV*S7meWLLDT-NH2; s = D-Serine (position 2); Lys 10 conjugated to C16 fatty acid via γEγE; *R6me (position 17) and *S7me (position 24) cyclized to form a double bond containing ring; C-terminal amide
For B4, in assay [1], the “GLP1R EC50 human (cAMP activity assay)” value was 2.28 nM. Also, in assay [2], the “GCGR EC50 human (cAMP activity assay)” value is 5 nM.
